{"source": "the nanobody polyreactivity screen of Harvey et al. (2022)"}
{"test": "yeast display, Sf9 membrane polyspecificity reagent, FACS + sequencing; frameworks hold sequencing errors", "method_in_brief": "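Genes from sorted yeast were amplified by colony PCR, read by MiSeq 2 × 250 sequencing and filtered on CDR length. These cells carried a synthetic nanobody library in Saccharomyces cerevisiae BJ5465 and were sorted by FACS into low and high (top ~1%) gates on anti-HA and streptavidin fluorescence. Polyreactivity is labelled according to the gate of origin.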"}
{"sequence": "QVQLVESGGGLLQAGGSLRLSCAASGRIIGWYAMGWYRPAPGKERELVAAISRGGTRTNYADSVKGRFTISRDNAKNTVYLQMNSLKPEDTAVYSCAAGGSWCQNGYWGQGTQVTVSS", "polyreactivity (PSR sort gate)": "high polyreactivity"}
{"sequence": "QVQLVESGGGLLQAGGSLRLSCAASGRTFGFYTMGWYRQAPGKERELVAGISRGGSTTYADSVKGRFTISRDNAKKTVYVEMNSLKQEDTAVYYSNADRSHYWLPYGVRFDYWGLGTQVTVSS", "polyreactivity (PSR sort gate)": "low polyreactivity"}
{"sequence": "QVQLVESGGGLLQAGGSLRLSCAASGRTFHTYAMGWYRHAPGKERELVAAISRSGGSTYYADSVKGRFTISRDNAMNPVYLQMNSLKPEDTAVYYCADTAGYWGQGTQVTVSS", "polyreactivity (PSR sort gate)": "high polyreactivity"}
{"sequence": "QVQLVESGGGLLQAGGSLRLSCAASGRTFKYYAMGWYRQAPGKERELVAAISHSGGSTYYADSVKGRFTISRDNAKNTVYLQMNSLKPEDTAVYYCAADHGDGNYPYYYWGQGTQVTVSS", "polyreactivity (PSR sort gate)": "high polyreactivity"}
{"sequence": "QVQLVESGGGLLQAGGSLRLSCAASGRTFYQYAMGWYRKAPGKDRELVAAITTSGRSTYYADSVKGRITISRDNAKNTVYLQMNRLKPEDTAVYYCNKDLSSTIFDYWGQGTQVTVSS", "polyreactivity (PSR sort gate)": "low polyreactivity"}
{"sequence": "QVQLVESGGGLLQAGGSLRLSCAASGRTIDVYAMGWYTQAPGKERELVAAISWSGGGTYYADSVKGRFTISRDNAKNTVYFQMHSLKAEDTAVYYCAAALTFALDPNRYTYSDYYYWGQGTQVTVSS", "polyreactivity (PSR sort gate)": "low polyreactivity"}
{"sequence": "QVQLVESGGGLLQAGGSLRLSCAASGRTLWIYAMGWYRQAPGKERELVASITTRGGSTYYADSVKGRFTISRDNAKNTVYLQMNSLKPEDTAVYYCARVSGARYTSYDYWGQGTQVTVSS", "polyreactivity (PSR sort gate)": "high polyreactivity"}
{"sequence": "QVQLVESGGGLLQAGGSLRLSCAASGSIFNKYAMGWYRQATGKEREFVAAITQGGGRTYYADSEKVRFTISRDNAKNTDYLQMNILKPEDTAVYYCNYNFNYPYYRYGYWGQGTQVTVSS", "polyreactivity (PSR sort gate)": "high polyreactivity"}
{"sequence": "QVQLVESGGGLLQAGGSLRLSCAASGSIFNYSAMGWYRQAPGTERELVATISSGGNTKYADSVKGRFTISRDNAKNTVYLQMNSLKPEDTAVYYCAARWQHSGYRDRYWYDYWGQGTQVTVSS", "polyreactivity (PSR sort gate)": "low polyreactivity"}
{"sequence": "QVQLVESGGGLLQAGGSLRLSCAASGSIFQYNAMGWYRQAPGKERELVAAINGGGSTYYADSVKGRFTISRDNAKNTVYLQMNSLKPEDTAVYYCAADGGAYSYRGPGKFGIEDSWGQGTQVTVSS", "polyreactivity (PSR sort gate)": "low polyreactivity"}
{"sequence": "QVQLVESGGGLLQAGGSLRLSCAASGSIFRRNAMGWYRQAPGTERELVACISGGGSTYYADSVKGRFTKSRDNAKNNVYLQLNSLNPEDTAVYYCATDKHYRWAVFDYWGQGTQVTVSS", "polyreactivity (PSR sort gate)": "low polyreactivity"}
{"sequence": "QVQLVESGGGLLQAGGSLRLSCAASGSIFSRYAMGWYRQAPGKERELVAAISKSGTRTYYADSVKGRFTISRDNAKNTVYLQMNSLKPEDTAVYYCNADSEISWYYPYEYWGQGTQVTVSS", "polyreactivity (PSR sort gate)": "high polyreactivity"}
{"sequence": "QVQLVESGGGLLQAGGSLRLSCAASGSTFPPYAMGWYRQAPGKERELVAAIDWSDGTTYYADSVKGRFTISRDNAKNTVYLQMNSLKPEDTAVYYCAASLSQSEYDYWGQGTQVTVSS", "polyreactivity (PSR sort gate)": "low polyreactivity"}
{"sequence": "QVQLVESGGGLLQAGGSLRLSCAASGSTFRIYAMGWYRQAPGKERELVAAIRRRGASTYYADSVKGRFTISRDNAKNTVYLQMNSLKQEDTAVYYCAASYLWDRVPGRGIHDYWGQGTQVTVSS", "polyreactivity (PSR sort gate)": "high polyreactivity"}
{"sequence": "QVQLVESGGGLLQAGGSLRLSCAASGSTISRYAMGWYRQAPGKERELVAAIRRNGDGTYYADSVKGRFTISRDNAKNTVYVQMNSLKPEDTAVYYCAARRFIPRFNYWGQGTQVTVSS", "polyreactivity (PSR sort gate)": "high polyreactivity"}
{"sequence": "QVQLVESGGGLLQAGGSLRLSCAASGTIFKYYAMGWYRQAPGKERELVAAISRSGSNTYYADSVKGRFRISRDNAKNTVYLQMNTLKPEDTAVYYFAARARRYIYTFDSWGQGTQVTVSS", "polyreactivity (PSR sort gate)": "high polyreactivity"}
{"sequence": "QVQLVESGGGLLQAGGSLRLSCAASRSTFFWYAMGWYRQAPGKERELVAANSKTGGSTYYADSVKGRFTISRDNAKNTVYLQMNSLKPEDTAVYYCARDYSWYYYGSQLFAHDYWGQGTQVTVSS", "polyreactivity (PSR sort gate)": "low polyreactivity"}
{"sequence": "QVQLVESGGGLLQAGGSLRLSCAASVRIFYGYAMGWYRPAPGKERELVAAIDSVGDTYYADSVKGRFTISRDNAKNTVYLQMNSLNPEDTAVYYCAADRTGGIVLSPTDEMDYWGQGTQVTVSS", "polyreactivity (PSR sort gate)": "low polyreactivity"}
{"sequence": "QVQLVESGGGLLQAGGSLRLSCAASVRIFYGYAMGWYRQAPGKERELVAAIDSVGDKYYADSVKGRFTISRDNAKNTVYLQMNSLNPEDTAVYSCAADRTGRIVLSPTDEMDYWGQGTQVSVSS", "polyreactivity (PSR sort gate)": "low polyreactivity"}
{"sequence": "QVQLVESGGGLLQAGGSLRLSCADSGSTFLYKAMGCYIQAPGKEREFVAAISGSGGTTYYADSVKGRFTISRDNAKNTVYLQMNSLKPEDTAVYYCAVSQSWYWYYASDYWGQGTQVTVSS", "polyreactivity (PSR sort gate)": "low polyreactivity"}
{"sequence": "QVQLVESGGGLLQAGGSLRLSCASSGRTFLVNAMGWYRQAPGKERELVAVITRVGSTNYADSVKGRFTISRDNAKNTVYLQMYSLKPEDTAVYYCAKQFSPYRSYGPVVRYDYWGQGTQLTVSS", "polyreactivity (PSR sort gate)": "low polyreactivity"}
{"sequence": "QVQLVESGGGLLQAGGSLRLSCDASGRIFGPNARGWYRQAPGKERELVDSISYSGGYTYYADSVKGRFTISRDNAKITFYLQMLSLIPVDTAVYYCAKGGYWSGYNYWGHGTQVTVSS", "polyreactivity (PSR sort gate)": "low polyreactivity"}
{"sequence": "QVQLVESGGGLLQAGGSLRLSSAASGFIFTKYNMGWYRQAPGKERELVDAIDTGGNTYADSVKGRFTISRDNAKNTVYLQMNSLKPEDTAVYYCSVDGGEFSSYGYWGQGTQVTVSS", "polyreactivity (PSR sort gate)": "low polyreactivity"}
{"sequence": "QVQLVESGGGLLQAGGSLRLSSAASGGTFPKYTKGWYRPAPGKEWELVAAITSRGGTYYADSVKGRFTISRDNAKNSVYLQMNSLKPEDTAVYYCAAEYSYSSYLWYDYWGQGTQVTVSS", "polyreactivity (PSR sort gate)": "high polyreactivity"}
{"sequence": "QVQLVESGGGLLQAGGSLRLSSAASGRTFPRYAMGWYRQAPGKERELVAAISVRAGITYYADSVKGRFTISRDNAKNTVYLQMNSLKPEDTAVYYCAKDHWTTSYDEGDYWGQGTQVTVSS", "polyreactivity (PSR sort gate)": "low polyreactivity"}
{"sequence": "QVQLVESGGGLLQAGGSLSLSCAASGGTFRYYTMGWYRQAPGKERELVASISGGGRTYYADSVKGRFTISRDNAKNTVYLQMNSLKPEDTAVYYCATYTRTFGYWGYGYWGQGTQVTVSS", "polyreactivity (PSR sort gate)": "high polyreactivity"}
{"sequence": "QVQLVESGGGLLQAGGSLSLSCAASGLILANYAMGWYRQAPGKERELVAAISSSGGSTYYADSVKGRFTISRDNAKNTVYLQMNSLKPEDTAVYYCAAYPLYRRRWTGDYWGQGTQVTVSS", "polyreactivity (PSR sort gate)": "high polyreactivity"}
{"sequence": "QVQLVESGGGLLQAGGSLSLSCAASGSIFVTNAMGWYRQAPGKERELVAAISVSGGSTYYADSVKGRFTISRDNAKYTVYLQMNSLKPEDTAVYYCNTVRSPPGHDYWGQGTQVTLSS", "polyreactivity (PSR sort gate)": "low polyreactivity"}
{"sequence": "QVQLVESGGGLLQAGGTLRLSCAASGFIFGRYAMGWYRQAPGKERELVADISWNGGSTYYADYVKGRFTISRDNAKNTVYLQMNSLKPEDTAVYYCAADYYWASFKYPYLRPYDYWGQGTQVTVSS", "polyreactivity (PSR sort gate)": "high polyreactivity"}
{"sequence": "QVQLVESGGGLLQAGVSLRLSCAASGFIFSYNTMGWYRQPPGKEREFVAAITYSGGSTYYADSVKWRFTSSRHNAKNSVYLQMNTLKPEDTAVYYCAAPYPRGYFFGDSPKGYGGGYWGQGTQVTVSS", "polyreactivity (PSR sort gate)": "high polyreactivity"}
{"sequence": "QVQLVESGGGLVEAGGRLSLSCAASGSIFHRNAMGGFRQAPGTERELVAAITYSGGGTYYADSVKGRFTISRDNAKNTVYLQMNSLKPEDTAVYYCAADYKSKYSRYIYDYWGQGPQVTVSS", "polyreactivity (PSR sort gate)": "low polyreactivity"}
{"sequence": "QVQLVESGGGLVEAGGSLRLICAASGSTFGWYAMGWSRQAPGKEREFVAAISWSGTSTYYADSVKGRFTISRDNAKNTVYLQMNSLKPEDTAVYYCNARSKRANRSLGLGYWGQGTQVTVSS", "polyreactivity (PSR sort gate)": "low polyreactivity"}
{"sequence": "QVQLVESGGGLVEAGGSLRLSCAASGFTFGYYAMGWYRPAPGKERELVAAITNGGRTNYAYSVKGRFTISRDNAKNTVYLQMNSLKPEDTAVYFCATDHYWSREVYWGQGTQVTVSS", "polyreactivity (PSR sort gate)": "low polyreactivity"}
{"sequence": "QVQLVESGGGLVEAGGSLRLSCAASGFTFRQYAMGWYRQAPGKEWELVAAISSGGSTYYADSVKGRFTISRDNAKNTDYVQMNSLKPEDTAVYYCAATHWAYSRVPYDYWGQGTQVTVSS", "polyreactivity (PSR sort gate)": "high polyreactivity"}
{"sequence": "QVQLVESGGGLVEAGGSLRLSCAASGIIFVYNAMGWSRKAPGKERELVADINWRGDGTYYSDSVKGRFTISPDNAKNTVYLQMNSLKPEDTAVYYCNAVRFRPNSHYRPVGYEYWGQGTQVTESS", "polyreactivity (PSR sort gate)": "low polyreactivity"}
{"sequence": "QVQLVESGGGLVEAGGSLRLSCAASGLTFEVYAMGWYRHAPGKERELVAVITSVGSTNYADSVKGRFTISRDNAKNTVYLQMNSLKPEDTAVYYCAADKWTVRRFNPYTYYRYDYWGQGTQVTVSS", "polyreactivity (PSR sort gate)": "low polyreactivity"}
{"sequence": "QVQLVESGGGLVEAGGSLRLSCAASGRIFVHNAMGWYRHAPGKERELVAVITYSGGRTYYADSVKGRFTISRDNAKNTVYLQMNSLKPEDTAVYYCAVRAYKVSRYYYWGQGTLVTVSS", "polyreactivity (PSR sort gate)": "low polyreactivity"}
{"sequence": "QVQLVESGGGLVEAGGSLRLSCAASGRTFGTYPMGWYRQAPGKERELVAAISSRGGTTYYADSVKGRFTISRDNAKNTVYLQMNSLKPEDTEVYYCARASWSITTVLSTMDYWGQGTQVTVSS", "polyreactivity (PSR sort gate)": "high polyreactivity"}
{"sequence": "QVQLVESGGGLVEAGGSLRLTCAASGIIFYQYAMGWYRQAPGKERELVAAISSRGGSTYYADSVKGRFTISRDNAKNTVYLQMNSLKPEDTAVYYCAAGSTRSTDGYWGQGTQVTVSS", "polyreactivity (PSR sort gate)": "high polyreactivity"}
{"sequence": "QVQLVESGGGLVHAGGILRLSCAASGRIFDYNVMGWYRQAPGKERELVADINGSGGGTNYADSVKGRFTISRDNAKNTVYLQMNSLKPEDTAVYYCAAEWYSYGARSSYGGSRNDYWGHGTQVTVSS", "polyreactivity (PSR sort gate)": "low polyreactivity"}
